B1: NaKΔ18 C-DI (domain or fragment, Bacillus cereus, UniProt Q81HW2 19-114, looked up)
chain: WKDKEFQVLFVLTILTLISGTIFYSTVEGLRPIDALYFSVVTLTTVGCDISPQTDFGKIFTILYIFIGIGLVFGFIHKLAVNVQLPSILSNRKKE
B2: NaKΔ18 C-DI F92A (domain or fragment, Bacillus cereus, UniProt Q81HW2 19-114, looked up)
chain: WKDKEFQVLFVLTILTLISGTIFYSTVEGLRPIDALYFSVVTLTTVGCDISPQTDFGKIFTILYIFIGIGLVAGFIHKLAVNVQLPSILSNRKKE
B3: NaKΔ18 S-DI (domain or fragment, Bacillus cereus, UniProt Q81HW2 19-114, looked up)
chain: WKDKEFQVLFVLTILTLISGTIFYSTVEGLRPIDALYFSVVTLTTVGSDISPQTDFGKIFTILYIFIGIGLVFGFIHKLAVNVQLPSILSNRKKE

Assays:
[1] = target: NaKΔ18 S-ELM (Bacillus cereus) (UniProt Q81HW2); assay: crystal structure
crystal structure = target: the molecule itself; assay: crystal structure

Molecule	stoichiometry N [1]	stoichiometry N (crystal structure)
NaKΔ18 S-ELM (from UniProt Q81HW2 19-114) (domain or fragment)	4	–
B1	–	4
B2	–	4
B3	–	4
